± gives the standard deviation.
Test: protein stability index of a GFP-peptide fusion (GPS, HEK-293T) (PSI 1-6); higher = more stable
[1] = treatment: DMSO, c terminus: a fixed tail appended
[2] = treatment: MLN4924 1 uM, 8 h, c terminus: a fixed tail appended
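Note: 24-mer peptide tiles fused after GFP, lentivirally expressed, FACS-sorted into six equal bins by GFP/DsRed ratio, decoded by Illumina sequencing, PSI is the read-weighted mean bin number.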

| Sequence | protein stability index [1] | protein stability index [2] | protein stability index (treatment: DMSO, c terminus: native) | protein stability index (treatment: MLN4924 1 uM, 8 h, c terminus: native) |
| --- | --- | --- | --- | --- |
| YSYRRLGEEALSLQALDPQQCVDK [SLC22A15] | 4.05 ± 0.45 | 4.05 ± 0.31 | – | – |
| ILVNLQGTVVFLLSLFIPESPRWL [SLC22A15] | 3.12 ± 0.14 | 3.23 ± 0.48 | – | – |
| KEEDHYQRARKEREKEDYLHLKRQ [RHOBTB2] | 4.85 ± 0.15 | 5.01 ± 0.19 | – | – |
| ARASEGSDSGSDKSLEGGGTAFDA [SMG5] | 5.48 ± 0.3 | 5.37 ± 0.45 | – | – |
| HRILLLAISLTKCLESTKLLADLK [MIA2] | 2.73 ± 0.35 | 3.339 ± 0.011 | – | – |
| LEFAYYFRPGHLLANACLPVRTTN [ZSWIM9] | 2.47 ± 0.67 | 2.25 ± 0.28 | – | – |
| ILELYNIDSHLLLSVLPQLEFKLK [PDS5B] | 2.64 ± 0.53 | 2.45 ± 0.78 | – | – |
| YFFLYQYCSIHCSDRKQVRNIAN [CSTF3] | – | – | 3.03 ± 1.1 | 3.22 ± 0.71 |
| GKLLLRLPSLRTVSSSVIEQLFFV [NR2F2] | 2.81 ± 0.6 | 2.83 ± 0.34 | – | – |
| ENPVGTFHCSMSPGNLEKNRYGDV [PTPN9] | 3.44 ± 0.35 | 3.4 ± 0.38 | – | – |
| TFEYTLLQPPHESRPQPIYYGFSE [ADAMTSL2] | 2.47 ± 0.28 | 2.58 ± 0.51 | – | – |
| RLLRDSEAFCHANCSGPAPAAKPD [P3H4] | 4.01 ± 0.35 | 4.01 ± 0.47 | – | – |
| GLAGYLSGYDGTFLFQKPGDKYEH [POMT2] | 2.62 ± 0.7 | 2.91 ± 0.6 | – | – |
| FQELAGKELCAMSEEQFRQRSPLG [SPDEF] | 3.1 ± 0.42 | 3.59 ± 0.33 | – | – |
| DKRNYPSLELDKMAHGYGEESEEE [CHGB] | 5.63 ± 0.37 | 5.66 ± 0.19 | – | – |
| LPPPSALKKGSKEKQADFLDKQMS [NFE2L1] | 4.89 ± 0.24 | 4.91 ± 0.29 | – | – |
| NDFVQVDPGQVGLINSNVSMVDLT [FAN1] | 3.9 ± 0.39 | 4.24 ± 0.15 | – | – |
| LGPPLVRKRIHDSRVAGFNPALQL [TOR1AIP2] | 3.07 ± 0.28 | 3.03 ± 0.26 | – | – |
| KLRHDLKKTSITQQPSKHRTDEEL [PLK2] | 4.915 ± 0.039 | 5.1 ± 0.15 | – | – |
| RIKIRQCIGLQNLKLLDELPIAKV [ASB7] | 2.12 ± 0.31 | 2.19 ± 0.49 | – | – |
| YFVSESFEDAKEKMREFTKTIKRP [TPH1] | 3.15 ± 0.19 | 3.41 ± 0.14 | – | – |
| NNLTDRIVVIPGKVEEVSLPEQVD [CARM1] | 5.1 ± 0.13 | 5.27 ± 0.23 | – | – |

| Sequence | protein stability index [1] | protein stability index [2] | protein stability index (treatment: DMSO, c terminus: native) | protein stability index (treatment: MLN4924 1 uM, 8 h, c terminus: native) |
| --- | --- | --- | --- | --- |
| LSSVECLDYTADEDGVWYSVAPMN [KLHL12] | 3.59 ± 0.19 | 3.74 ± 0.48 | – | – |
| KILLDAQHESGQSSSRGSSHCDSP [BNIP3L] | 4.91 ± 0.18 | 4.83 ± 0.1 | – | – |
| RLRALGERHTMDLTVEGFQSWMWR [TMEM120A] | 2.38 ± 0.27 | 2.58 ± 0.49 | – | – |
| PEAKVLHTKRLYRAVVEAVHRLDL [SMG5] | 2.19 ± 0.3 | 2.17 ± 0.11 | – | – |
| YRERRDSDTYRCEERSPSFGEDYY [CLK3] | 4.37 ± 0.2 | 4.29 ± 0.21 | – | – |
| DPFVCRLRHLSPTPSEEHMKNKNN [OR4A15] | 4.73 ± 0.11 | 4.66 ± 0.1 | – | – |
| ALEALEPFWEVLVRSTETVERDNM [HDAC6] | 2.95 ± 0.23 | 3.12 ± 0.45 | – | – |
| KEKSSTVPIPTVNQYLYFLFAPTL [SOAT1] | 2.57 ± 1 | 2.17 ± 0.51 | – | – |
| LTINPAKRITASEALKHPWICQRS [CAMK2D] | 2.57 ± 0.1 | 2.72 ± 0.25 | – | – |
| DSDIPEIPPSSDRTPEILKKALSG [CDS1] | 5.2 ± 0.21 | 5.39 ± 0.19 | – | – |
| YIPVIKRALNSVPVIIAAVGTRQN [RHOBTB3] | 2.35 ± 0.52 | 2.24 ± 0.35 | – | – |
| RCLHMFLQDEIIDKSYTPSKIRHA [SNX3] | 2.05 ± 0.58 | 1.92 ± 0.52 | – | – |
| RPARSTLDELLGRGMATKLLARPG [FBF1] | 2.61 ± 0.19 | 2.63 ± 0.17 | – | – |
| RSIPDTQLEQVIESQKANQCAVLI [ACSBG2] | 3.54 ± 0.14 | 3.67 ± 0.47 | – | – |
| SLRLWDTFGDHHKDRRFAYGRSDV [RHOBTB1] | 2.87 ± 0.38 | 2.92 ± 0.24 | – | – |
| PEGQELQKLGSGAWDNPAYSGPPS [PKD2L1] | 4.53 ± 0.35 | 4.93 ± 0.36 | – | – |
| DPGLWSRLCRLAGASSPAAYDEAL [ZSWIM9] | 2.82 ± 0.15 | 2.78 ± 0.24 | – | – |
| ISSTTCGRQLEKVPEKRDSGMTEV [SPATS1] | 4.27 ± 0.24 | 4.38 ± 0.35 | – | – |
| VLPPIHAYGNRTECRNPQELESIR [FEM1B] | 4.14 ± 0.28 | 4 ± 0.21 | – | – |
| RDNDHPDHSSRELSKILAKLERLK [FUT8] | 2.39 ± 0.25 | 2.27 ± 0.24 | – | – |
| CLGLSYDGLLGDNQIMPKTGFLII [MAGEA6] | 3.01 ± 0.6 | 2.49 ± 0.44 | – | – |
| LEDGFYLTAFICFLVFILNAGLVW [MFSD9] | 3.23 ± 0.84 | 2.73 ± 0.95 | – | – |
